Reference: publication PMC5412568 (The Journal of Cell Biology, 2017)
Residue numbers refer to the chain shown, from its start. Names and notes keep the numbering of the source. Where two headings read alike, the source gives them in different places.

B1: cytoDATL (aa 1-415) G343C, K320T (domain or fragment)
chain: MGGSAVQVINASEEHTFVLNEDALSEVLMRDEVKDRFVCVVSVAGAFRKGKSFLLDFFLRYMYSKYVHHDATDWLGGESDPLEGFSWRGGSERDTTGILMWSDIFLHDYPNGDKIAIILLDTQGAFDSQSTVRDCATVFALSTMLSSVQIYNLSQNIQEDDLQHLQLFTEYGRLALADTGKKPFQRLQFLVRDWSFPYEAEYGALGGDKILKRRLEVSDKQHPELQSLRRHISSCFTEVACFLMPHPGLNVATNPKFDGRLQDITPEFKSSLRSLVPMLLAPDNLVYKEISGQRVRARDLIQYFQSYMNIYKGNELPEPTSMLVATAEANHLTAVAAAKELYCQLMEEVCGGTRPYLSTAHLQTEHLRVKDKALFQFAAKRKMGGEEFTEKFRKQLEDDLEEVFTNYQAHNESKN
modifications: Cy3 maleimide on the engineered cysteine G343C in the PIFE assays; unlabelled in cross-linking
B2: cytoDATL (aa 1-415) G343C, K320N (domain or fragment)
chain: B1 chain with T320N
modifications: Cy3 maleimide on the engineered cysteine G343C in the PIFE assays; unlabelled in cross-linking
B3: cytoDATL (aa 1-415) G343C, K320E, E328R (domain or fragment)
chain: B1 chain with T320E, E328R
modifications: Cy3 maleimide on the engineered cysteine G343C
B4: cytoDATL (aa 1-415) G343C, K320G (domain or fragment)
chain: B1 chain with T320G
modifications: Cy3 maleimide on the engineered cysteine G343C in the PIFE assays; unlabelled in cross-linking
B5: cytoDATL (aa 1-415) G343C, K320M (domain or fragment)
chain: B1 chain with T320M
modifications: Cy3 maleimide on the engineered cysteine G343C in the PIFE assays; unlabelled in cross-linking
B6: cytoDATL (aa 1-415) K320G with mCerulean3 at the C terminus (domain or fragment)
chain: B1 chain with T320G, C343G
B7: cytoDATL (aa 1-415) G343C, P317G (domain or fragment)
chain: B1 chain with P317G, T320K
modifications: Cy3 maleimide on the engineered cysteine G343C in the PIFE assays; unlabelled in cross-linking

Experiments:
[1] = biological target: the molecule itself; assay: protein-induced fluorescence enhancement
[2] = biological target: the molecule itself; assay: protein-induced fluorescence enhancement; remark: listed apart in the source
[3] = biological target: cytoDATL (aa 1-415) K320G with super YFP at the C terminus (D. melanogaster, UniProt Q9VC57 1-415, K320G); assay: FRET or BRET

Binder | binding result [1] | further results
B1 | binds | 
B2 | binds | 
B3 |  | binding result [2]: binds
B4 | binds | 
B5 | binds | 
B6 |  | binding result [3]: binds
B7 | binds | 
